Assay results taken from patent publication US20180231560A1.

Molecular target: c-MET protein (Homo sapiens (Human)) (UniProt P08581)
Experiment: immunomagnetic capture of spiked c-MET expressing cell lines by anti-c-MET ferrofluid

UniProt P08581, sequence (P08581 25-1390 limits assumed): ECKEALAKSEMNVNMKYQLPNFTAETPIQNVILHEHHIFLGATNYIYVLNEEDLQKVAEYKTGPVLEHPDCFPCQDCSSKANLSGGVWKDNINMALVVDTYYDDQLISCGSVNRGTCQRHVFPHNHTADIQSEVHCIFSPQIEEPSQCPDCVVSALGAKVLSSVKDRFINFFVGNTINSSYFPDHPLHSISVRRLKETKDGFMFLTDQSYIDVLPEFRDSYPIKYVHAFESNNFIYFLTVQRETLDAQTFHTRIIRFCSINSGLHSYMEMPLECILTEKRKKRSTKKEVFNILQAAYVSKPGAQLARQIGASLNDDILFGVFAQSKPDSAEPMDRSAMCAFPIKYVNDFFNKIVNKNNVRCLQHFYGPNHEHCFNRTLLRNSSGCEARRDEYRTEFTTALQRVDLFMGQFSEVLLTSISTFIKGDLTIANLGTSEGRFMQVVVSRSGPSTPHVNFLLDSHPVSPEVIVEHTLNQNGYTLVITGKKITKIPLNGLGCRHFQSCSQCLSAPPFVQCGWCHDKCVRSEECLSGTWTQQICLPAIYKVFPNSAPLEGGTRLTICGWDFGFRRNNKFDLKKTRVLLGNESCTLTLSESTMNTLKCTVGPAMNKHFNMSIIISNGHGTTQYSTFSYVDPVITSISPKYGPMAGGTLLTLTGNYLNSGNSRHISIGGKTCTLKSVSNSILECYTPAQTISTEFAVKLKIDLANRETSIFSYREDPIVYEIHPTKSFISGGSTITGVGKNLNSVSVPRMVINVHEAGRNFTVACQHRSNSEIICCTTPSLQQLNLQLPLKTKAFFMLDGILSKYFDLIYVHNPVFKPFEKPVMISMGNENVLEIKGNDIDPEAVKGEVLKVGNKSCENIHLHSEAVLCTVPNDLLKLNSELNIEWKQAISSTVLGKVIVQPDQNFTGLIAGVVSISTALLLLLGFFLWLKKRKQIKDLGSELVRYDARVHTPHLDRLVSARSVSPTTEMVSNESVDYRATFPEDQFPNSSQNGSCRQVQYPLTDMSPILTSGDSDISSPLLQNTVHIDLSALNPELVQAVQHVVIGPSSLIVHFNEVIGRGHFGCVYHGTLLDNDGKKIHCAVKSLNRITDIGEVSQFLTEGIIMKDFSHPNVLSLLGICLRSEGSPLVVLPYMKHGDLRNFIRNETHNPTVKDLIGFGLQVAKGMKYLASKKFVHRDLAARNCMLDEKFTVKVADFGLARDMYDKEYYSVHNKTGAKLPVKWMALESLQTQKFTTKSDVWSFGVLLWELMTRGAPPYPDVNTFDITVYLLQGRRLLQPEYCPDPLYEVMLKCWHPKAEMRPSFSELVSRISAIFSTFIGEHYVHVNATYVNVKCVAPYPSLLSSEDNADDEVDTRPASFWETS

HGF R/c-MET Antibody clone L6E7 (Cell Signaling Technologies), as anti-c-MET ferrofluid
recovery of c-MET cells: 20 to 40%
